In patent US20220073611A1 (LANKENAU INSTITUTE FOR MEDICAL RESEARCH, published 2022):

B1: mAb 1D1 (antibody, V domains shown)
VH: LVQLVESGGGVVQSGRSLRLSCAASGFAFHTFTIHWVRQAPGKGLDWVTAIYFDGTKKYYADSVKGRFTVSRDNSKNTVYLQMNGLRGEDTAVYYCARARYSYGLSFDYWGQGTPVTVSS
VL: QSVVTQPPSVSAAPGQKVTISCSASSSYLGSNYVSWYQQLPGTAPKLLIYDNNKRSSGISDRFSGSKSGTSATLDITGLQTGDEADYYCGAWDSSLSVVVFGGGTKLTVL
notes: Human IgG mAb from an ANRE patient; also called 1G1; 1DA
B2: mAb 5F5 (antibody, V domains shown)
VH: QVQLVESGGGVVRPGGSLRLSCAASGFTFSTYSLHWVRQAPGKGLEWVGVILYDGSKKYYADSVRGRFTISRDNSKSTLNLDMSSLRPDDTAVYYCARDPIAVAPRPSGMVPQGFDYWGQGTLVTVSS
VL: QSVVTQPPSASGTPGQRVTISCSGSSSNIGRNFVFWYRQLPGTAPKVLIYKNIQRPSGVPDRISGSRSGSSASLAISGLRSEDEADYYCASWDDSLSGVVFGGGTKLTVL
notes: Biotinylated or CypHer5E-labelled in some assays; also called SFS; 5G5
B3: mAb 2G6 (antibody, V domains shown)
VH: QVQLQESGGGVVQPGRSLRLSCAASGFSFNAFAMHWVRQAPGKGLEWVARISHYGSDDYYADSVKGRFTISRDNSQNTLFLQMNSLKAEDTGVYYCWRGFTLVRGVISRNPINRFSGMDVWGQGTTVTVS
VL: SYELMQPPSVSVSPGQTARITCSGDALPKKYAYWYQQKSGQAPILVIYEDNKRPSGIPERFSGSSSGTMATLTISGAQVEDEADYFCYSTDSSGNHGVFGGGTKLTVL
notes: Human IgG lambda mAb from a hybridoma of an ANRE patient; Biotinylated or CypHer5E-labelled in some assays; also called 2C6; 2G6-biotin

Each binder was assayed against T1, TEV protease-mobilized soluble ATD (human, UniProt Q05586 19-561, biotinylated (Sulfo-NHS-Biotin) in the titration on plate-bound 5F5) (assay: ELISA, ATD captured on the plate by a Myc tag antibody).
T1 construct: also called mobilized ATD; plate-adherent ATD
Method: To test binding of human NR1 antibodies to plate-adherent ATD, we added 5 μg/mL Myc antibody (C3956, Sigma-Aldrich) (100 μl/well) to Black 96-well plates (12-566-24, Thermo Fisher) overnight, washed the plates 3 times with PBST, blocked with 5% inactivated fetal bovine serum and 3% Goat serum (Invitrogen) in PBST for 1 h at 37° C., washed 3 times, added 5 μg/mL ATD, and then incubated for 1 h at 37° C. and washed 3 more times. We added human mAbs, 5F5, 2G6, 1D1, and control isotype 6A at 5 μg/mL (100 μl/well), or 5 μg/mL anti-NR1 mAb (MAB 1586 RUHL, Millipore), in triplicate samples, and incubated for 1 h at 37° C. After three additional PBST washes, secondary antibodies were added, either an anti-human IgG HRP conjugate (9040-05 Southern Biotech, Birmingham, Ala.) or anti-mouse IgG HRP conjugate (1010-05, Southern Biotech), at 1:2000 and incubated for 1 h at 37° C., followed by 3 washes. Super Signal ELISA Femto Substrate was used for detection. Data was collected in the Biotek SYNERGY II Microplate reader and analyzed with Microsoft Excel.

T1 sequence (Q05586 other isoform, or with tags, fused parts or gaps): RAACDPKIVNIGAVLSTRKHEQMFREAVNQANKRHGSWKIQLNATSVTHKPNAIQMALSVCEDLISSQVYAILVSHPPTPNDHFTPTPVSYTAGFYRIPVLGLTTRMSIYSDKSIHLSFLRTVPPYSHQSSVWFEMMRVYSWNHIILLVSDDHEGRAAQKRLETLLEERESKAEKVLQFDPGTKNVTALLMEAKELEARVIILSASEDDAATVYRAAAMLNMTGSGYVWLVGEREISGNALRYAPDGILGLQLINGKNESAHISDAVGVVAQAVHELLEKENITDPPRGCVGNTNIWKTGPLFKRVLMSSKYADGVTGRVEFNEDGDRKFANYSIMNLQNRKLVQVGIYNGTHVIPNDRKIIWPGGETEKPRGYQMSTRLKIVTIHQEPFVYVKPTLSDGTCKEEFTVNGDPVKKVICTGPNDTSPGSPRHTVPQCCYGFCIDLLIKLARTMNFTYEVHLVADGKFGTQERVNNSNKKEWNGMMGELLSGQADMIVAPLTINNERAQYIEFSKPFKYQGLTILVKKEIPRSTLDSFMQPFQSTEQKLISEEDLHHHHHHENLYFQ

**Q.** Does B1 bind?
**A.** binds

**Q.** Does B2 bind?
**A.** binds

**Q.** Does B3 bind?
**A.** binds

The binders below were run against T2, NR1 ATD fusion protein on 293T-ATD cells (human) (assay: flow cytometry on 293T-ATD cells, co-stained with commercial anti-NR1 mAb).
T2 construct: also called HEK293T-ATD; GluN1-ATD fused to the PDGF receptor transmembrane domain
Method: Primary antibodies included the BIOORBYT APC-labeled NR1 mAb at 10 μg/mL, an ALEXA FLUOR 488 labeled Myc tag mAb at 2 μg/mL (16-308, Millipore, Billerica, Mass.) three human IgG mAbs (5 μg/mL) isolated from a patient with ANRE (5F5, 2G6, 1D1) and the 6A isotype control mAb¹⁴. As a secondary antibody for the human mAbs, we used a FITC-conjugated F(ab′)2 goat anti-human IgG (109-096-008, Jackson ImmunoResearch, West Grove, Pa.). Cells were assayed with a BD FACSCANTO II (Becton Dickson, Franklin Lakes, N.J.). Data were analyzed using FLOWJO 8.8.7. Software (Tree Star, Ashland, Oreg.).

T2 sequence (chain, as listed by the source limits assumed): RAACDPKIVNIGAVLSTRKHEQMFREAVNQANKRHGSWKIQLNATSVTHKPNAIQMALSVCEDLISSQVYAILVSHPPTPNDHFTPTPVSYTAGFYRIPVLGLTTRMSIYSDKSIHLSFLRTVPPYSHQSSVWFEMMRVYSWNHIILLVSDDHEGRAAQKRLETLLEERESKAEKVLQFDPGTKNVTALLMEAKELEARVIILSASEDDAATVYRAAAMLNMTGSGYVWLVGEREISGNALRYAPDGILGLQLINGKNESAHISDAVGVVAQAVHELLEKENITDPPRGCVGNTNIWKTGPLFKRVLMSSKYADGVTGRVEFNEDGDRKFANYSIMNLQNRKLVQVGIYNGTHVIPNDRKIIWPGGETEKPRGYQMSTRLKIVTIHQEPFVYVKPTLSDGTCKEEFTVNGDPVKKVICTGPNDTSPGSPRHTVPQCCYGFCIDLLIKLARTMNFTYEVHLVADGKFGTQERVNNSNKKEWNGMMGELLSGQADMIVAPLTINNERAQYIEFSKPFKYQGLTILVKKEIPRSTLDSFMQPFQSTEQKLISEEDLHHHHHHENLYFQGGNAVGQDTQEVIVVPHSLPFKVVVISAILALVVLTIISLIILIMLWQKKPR

**Q.** B1 was tested. Which “Percent GluN1 positive 293T-ATD cells bound” value did it give?
**A.** 53.7%

**Q.** And the double positive cells?
**A.** 37%

**Q.** For B2, which “Percent GluN1 positive 293T-ATD cells bound” value is on record?
**A.** 90.5%

**Q.** What about the double positive cells of the same binder?
**A.** 62.3%

**Q.** With B3 as the binder, how does the “Percent GluN1 positive 293T-ATD cells bound” value read?
**A.** 58.8%

**Q.** What about the double positive cells of the same binder?
**A.** 40.5%
